Experimental findings from patent publication US20220073620A1 (CHANGCHUN GENESCIENCE PHARMACEUTICAL, published 2022) are described below.

Test [1] has as its target VEGFA protein (UniProt P15692-4 27-191, limits assumed). As to the kind of experiment: cell-based or functional assay.
For test [2], the target named is T1, human VEGF-A-His (human, UniProt P15692 207-395).
T1 construct: also called hVEGF-A
T1 sequence: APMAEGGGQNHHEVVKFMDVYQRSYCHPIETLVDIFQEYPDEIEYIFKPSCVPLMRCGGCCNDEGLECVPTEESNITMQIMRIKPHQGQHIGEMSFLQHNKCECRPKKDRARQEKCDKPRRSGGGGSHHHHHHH
The test can be described thus: SPR (Biacore T200), human VEGF-A-His coupled to the chip, fusion protein flowed over. How it is done: The affinities of FabT and FTF were detected by Biacore T200 instrument. The specific protocols were as follows. Human PD-L1-His (constructed by GeneScience, SEQ ID NO: 11) and human VEGF-A-His (constructed by GeneScience, SEQ ID NO: 13) were coupled to CMS biosensor chip (GE), and then the antibodies of different concentrations were flowed through the chip at a flow rate of 30 μL/min. The binding between the candidate antibody and antigen was performed with a binding time of 120 s and a dissociation time of 300 s. The kinetic fitting was performed using BIAevalution software (GE), and the results of affinity constants were obtained as shown in Table 6 and Table 7.
(In SPR one partner is held on a chip, and binding of the other changes the refractive index at the surface.)

In test [3] the target is T2, Human PD-L1-His (human, UniProt Q9NZQ7 19-238).
T2 construct: also called hPD-L1
T2 sequence (Q9NZQ7 19-238 limits assumed): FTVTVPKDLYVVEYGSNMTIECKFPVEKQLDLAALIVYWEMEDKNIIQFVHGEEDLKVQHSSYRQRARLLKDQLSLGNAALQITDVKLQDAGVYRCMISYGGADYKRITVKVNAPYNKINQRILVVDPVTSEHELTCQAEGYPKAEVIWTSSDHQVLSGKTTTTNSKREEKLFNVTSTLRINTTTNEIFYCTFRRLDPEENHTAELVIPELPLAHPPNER
As to the kind of experiment: bridging ELISA, hPDL1-His and hVEGF121b-mFc as the two antigens; control diluted from 10 ug/ml. A general note: ELISA stands for enzyme-linked immunosorbent assay.

The target of test [4] is PDL1 on the surface of CHO-PDL1-CD3L cells (UniProt Q9NZQ7 19-290, limits assumed). The test can be described thus: cell-based or functional assay.
Chain of PDL1 on the surface of CHO-PDL1-CD3L cells (Q9NZQ7 19-290 limits assumed): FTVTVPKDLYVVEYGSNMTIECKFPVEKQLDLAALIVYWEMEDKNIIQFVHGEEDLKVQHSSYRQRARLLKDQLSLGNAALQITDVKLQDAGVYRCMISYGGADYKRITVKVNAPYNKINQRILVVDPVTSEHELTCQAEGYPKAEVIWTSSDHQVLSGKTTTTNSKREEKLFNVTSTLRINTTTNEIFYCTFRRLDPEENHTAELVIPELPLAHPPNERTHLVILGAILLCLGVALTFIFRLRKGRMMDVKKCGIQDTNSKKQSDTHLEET

By Kd is commonly meant the concentration at which binding is half-saturated. Read a high Kd as lower affinity. What is called koff is the first-order rate constant of dissociation. Read a low koff as slow dissociation. As usually defined, the kon is the second-order rate constant of association. Low readings indicate slow association, high ones fast association.

B1: Eylea positive fusion protein (Fc fusion, not shown: a dimerising Fc or GST)
chain: SDTGRPFVEMYSEIPEIIHMTEGRELVIPCRVTSPNITVTLKKFPLDTLIPDGKRIIWDSRKGFIISNATYKEIGLLTCEATVNGHLYKTNYLTHRQTNTIIDVVLSPSHGIELSVGEKLVLNCTARTELNVGIDFNWEYPSSKHQHKKLVNRDLKTQSGSEMKKFLSTLTIDGVTRSDQGLYTCAASSGLMTKKNSTFVRVHEK
notes: also called control molecule Eylea
For B1, the “IC50, luciferase reporter in NFAT-RE-Luc2P-KDR-HEK293 cells stimulated with 50 ng/ml VEGFA” value in test [1] was 0.75 nM. Further, in test [2], the affinity, expressed as Kd, was 1.51 nM; the koff worked out at 0.000932 s⁻¹; the kon stood at 617000 M⁻¹ s⁻¹. Moreover, in test [3], the binding result is reported as “no binding (tested: 10 ug/ml)”.

B2: anti-human PD-L1 humanized monoclonal antibody 047 Ab-6 (antibody, V domains shown)
VH: EVQLVESGGGLVQPGGSLRLSCAASYFPFSDSWIHWVRQAPGKGLEWVAWISPYGGSSYYADSVQDRFTISADTSKNTAYLQMNSLRAEDTAVYYCAKRHWPGGFDHWGQGTLVTVSS
VL: DIQMTQSPSSLSASVGDRVTITCSASQDVTTAVAWYQQKPGKAPKLLIYSASFPYRGVPSRFSGSGSGTDFTLTISSLQPEDFATYYCQQYMYHPSTFGQGTKVEIK
Regarding B2, the “EC50, luciferase reporter in Jurkat-PD1-NFAT cells co-cultured with CHO-PDL1-CD3L cells” value in test [4] turned out to be 3.55 nM.
